The data set is described as follows: soluble on expression in E. coli; label from the status in PepcDB or PDB records.
As to “MEKIMPEEEYSEFKELILQKELHVVYALSHVCGQDRTLLASILLRIFLHEKLESLLLCTLNDREISMEDEATTLFRATTLASTLMEQYMKATATQFVHHALKDSILKIMESKQSCELSPSKLEKNEDVNTNLTHLLNILSELVEKIFMASEILPPTLRYIYGCLQKSVQHKWPTNTTMRTRVVSGFVFLRLICPAILNPRMFNIISDSPSPIAARTLILVAKSVQNLANLVEFGAKEPYMEGVNPFIKSNKHRMIMFLDELGNVPELPDTTEHSRTDLSRDLAALHEICVAHSDELRTLSNERGAQQHVLKKLLAITELLQQKQNQYTKTNDVR”, the “soluble on expression in E. coli” value is given as “soluble”.
As for “MKLLAITSCPNGIAHTYMAAENLQKAADRLGVSIKVETQGGIGVENKLTEEEIREADAIIIAADRSVNKDRFIGKKLLSVGVQDGIRKPEELIQKALNGDIPVY”, the “soluble on expression in E. coli” value is given as “not soluble”.
The same measure for “MGSDKIHHHHHHMAGVSPLSNRWSKQVLSNFEQAASTYNSQAQLQRAVAWRLARQCARQHIPAGFWVDLGSGTGLMADALEACNPHQAVLRVDGCHEMLKHHHHSSQTLLWDLNLGVPSWPQLPSLLASSFALHWLINPLERLHEWMAALTPEGWLALALPVEGSFPQWHQAAATAGVSCTALPFPSQASLLDVLSSNNIRHQQLHQFTQQSPEVFQLLKPMRQIGAQASPCSTMGVGNWRHLKQAWPRCQNSGDAQLTWLIQLLLIQR”: “not soluble”; for “MSLKITLFGGAGFLGSHVCDKLSEAGHDVTVVDLRPSPYLRPDQTMITGNILDEELVARAVEGADMVFNYAGIADIGEANRRPVDTARINVLGNVIALEACRKAGVKRYVFASSLYVYGKSGGFYRCSKQACELYIENYQAMHGLDYTILRYGSLYGSRADIRNAINRFVAEALEKGAITYYGSPTALREYIHVEDAALCTVEVLKPEYANENIVLSGNQPMRVGDLFKMIGEMLGKDIEVVYQHDPNSGHYQITPYAFMPKVGKKMTPILTTDLGQGILRVMEDVHREMHPDMHDVGGYLVSKDEGHHHHHH”: “soluble”.
The same measure for “MTKSKSKKEDLIPEIGDFTKFFKSRSKFSDQITDVISNVYEWSTSLEPSEDNLPLPFVSKNEEVVWSYLKHQNKQLDGINKKYKGFLSELIGKSHIRVAAKIQDSEGSEDGSDGSDGGSEEELDDDEEELEDEELEDEMIDDEDEADLFNLSESDLKTLDADLKKMEEEEAGEEKEEVEKATEQPKKFKKSIVDDQFFNLDEMHDFLQKTERAGGKKAAQDEEMMFEDEDSWDGKTDYTYEDFFGSRETVAETEKMNGEKKKIEKDKKRKAGDKADLSLDDGKNKKRVRFAMDEEPEEEEVEDEEQEDINDEEEPPEDEPVLLGADLEEPKEESAFAKRQSKMKERIAKLEEENLAPKSWELSGEVAADQRDQNTLLEKHVDFDHGAKRAPEVTEEFTDRLESLIKQRIRDKAWDDVIRVKKVEAKGAKFETEAIENQMNQKTSLAEVYEKEYQNSTGNSADGAAGATKPNEAHEAIKSKMGDLFRLIDALTHFEYKPDQAREEVKVVSNMAALRVEEVGITASTEAQLMAPEEISKKMKAIEKSKDERDATDKARERRQKKAKQRSMLEKFGEERVFGEQKAVKLAKKERKAGKEKGGGVDKIKSSNFFAKLQETVAAEKKDGAVTKKKKKIVKRLKSDKNSAAIKL”: “not soluble”; for “MGSDKIHHHHHHMTLTANNKKRAVLRVRPGQFVVTPAIEQVAIRALRYLTSGFAIHLRGPAGTGKTTLAMHLANCLDRPIMLIFGDDEFKSSDLIGSESGYTHKKLLDNYIHSVLKVEDEFKQNWVDSRLTLACREGFTLVYDEFNRSRPEVNNVLLSALEEKILTLPPSSNQPEYLHVNPQFRAIFTSNPEEYCGVHSTQDALMDRLVTINMPEPDELTQTEILAQKTALNRADALLVVQLVKAFRSRTGGEKTSGLRSCLMIAKVCAEHNILVAPESSDFREICADVLFNRTNWSASEATTIFLELLNHLNLEEIEEFKNSITSEDTDAIADEDHNAINESGFPTIIDSQFGTLDSEVLEQPGVEDSIPFEREIYLYLQQYKSAALALLQQEFELSRTVATNALNSLEQKGLVSKNNHVYTIEEPNQP”: “not soluble”; for “TPMYESTSELYVLSKSTSITSLADIQTGTSLTNDYIVVVKGRPVLDQVIENLNLNESYKTLGGRVTLDNPSNSRVLNITVTDPDPQMAKTIADEIAKVASAYIAEKMKQDPPTIIQSGYDDGGAVSPNIGKNT”: “not soluble”.

The record behind these values is the DeepSol protein solubility set.
